Test results: patent US20210030870A1 (STIPE THERAPEUTICS, published 2021)

Target: T1, C-terminal STING (immobilized and purified) (Homo sapiens, UniProt Q86WV6 139-379)
T1 construct: only an unstated C-terminal part stood in the assay; also called immobilized C-terminal STING
Experiment: SPR (Biacore); C-terminal STING immobilized on the sensor chip
Description: For the surface plasmon resonance (SPR) analyses, BlAcore sensor chips (type CMS; Biacore, Uppsala, SE) were activated with a 1:1 mixture of 0.2 M N-ethyl-N′-(3-dimethylaminopropyl) carbodiimide and 0.05 M N-hydroxysuccinimide in water according to the manufacturer. C-terminal STING was immobilized. The SPR signal from immobilized C-terminal STING generated BlAcore resonance units (RU) that were equivalent to 66 fmol/mm2. The flow cells were regenerated with 20 μl of 1.5 M glycine-HCI (pH 3.0). The flow buffer was 10 mM HEPES, 150 mM NaCl, 1.5 mM CaCl2, and 1 mM EGTA (pH 7.4). The binding data was analyzed using the BIAevaluation program. The number of ligands bound per immobilized receptor was estimated by dividing the ratio RU ligand/mass ligand with RU receptor/mass receptor. The Kd for binding was estimated using a BIA evaluation program.

T1 sequence (Q86WV6 139-379 limits assumed): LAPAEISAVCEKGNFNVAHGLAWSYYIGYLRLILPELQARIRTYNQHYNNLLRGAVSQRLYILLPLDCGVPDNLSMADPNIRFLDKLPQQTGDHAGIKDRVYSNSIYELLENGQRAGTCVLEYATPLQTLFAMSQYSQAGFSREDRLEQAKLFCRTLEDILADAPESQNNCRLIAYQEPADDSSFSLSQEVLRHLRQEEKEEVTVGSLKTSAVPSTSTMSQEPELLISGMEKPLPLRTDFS

B1: PEP301, PB1 domain fragment peptide of human P62 (peptide)
peptide: FSFCCSPEPEAEAEAAAGPGGRKKRRQRRRPQ
notes: also called Sp62-301; PB1-domain peptide PEP301
Work on B1 yielded a Kd of 746 nM.
